Patent US20100209424A1
pIC50: −log10 of the molar value.

Columns and labels:
[1] = target: human FcRn (GFP-hFcRn construct lacking the endosomal targeting domain, expressed on the plasma membrane of human 293 cells) (human) (UniProt P55899); experiment: flow cytometry competition against hIgG-Alexa Fluor 647 on 293 cells expressing GFP-hFcRn, pH 5.8
[2] = target: human FcRn (GFP-hFcRn construct lacking the endosomal targeting domain, expressed on the plasma membrane of human 293 cells) (human) (UniProt P55899); experiment: flow cytometry competition against hIgG-Alexa Fluor 647 (40 µg/ml) on 293 cells expressing GFP-hFcRn, pH 5.8

Chain of UniProt P55899 (P55899 24-321): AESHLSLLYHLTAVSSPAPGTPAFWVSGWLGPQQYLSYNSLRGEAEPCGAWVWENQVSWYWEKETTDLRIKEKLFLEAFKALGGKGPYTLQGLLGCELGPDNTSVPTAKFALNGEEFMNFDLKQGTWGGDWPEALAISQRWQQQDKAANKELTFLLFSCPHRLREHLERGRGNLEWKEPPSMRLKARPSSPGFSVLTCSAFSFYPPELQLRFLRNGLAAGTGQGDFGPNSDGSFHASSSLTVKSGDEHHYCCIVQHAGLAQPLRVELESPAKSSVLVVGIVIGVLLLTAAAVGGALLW

Substance | fold decrease of IC50 against unconjugated hIgG [1] | pIC50 [2]
biotinylated human immunoglobulin G (hIgG-biotin) (antibody) | 2 fold | 5.27
human immunoglobulin G (hIgG), unconjugated (antibody) | – | 4.94
